# Experimental data: patent US20230183328A1
# Assays:
# [1] = biological target: antigen of the Antigen binding ELISA (not named; BAN2401 is described as binding human Aβ protofibrils) (UniProt P05067); assay: antigen binding ELISA; formulation F17, 25°C/1M
# CD32a [2] = biological target: CD32a (UniProt P12318); assay: CD32a binding assay; formulation F18, initial
# CD32a [3] = biological target: CD32a (UniProt P12318); assay: CD32a binding assay; formulation F0, 25°C/2M
# [4] = biological target: antigen of the Antigen binding ELISA (not named; BAN2401 is described as binding human Aβ protofibrils) (UniProt P05067); assay: antigen binding ELISA; formulation F13, 25°C/2M
# CD32a [5] = biological target: CD32a (UniProt P12318); assay: CD32a binding assay; formulation F15, freeze-thaw 3 cycles
# CD32a [6] = biological target: CD32a (UniProt P12318); assay: CD32a binding assay; formulation F17, initial
# CD32a [7] = biological target: CD32a (UniProt P12318); assay: CD32a binding assay; formulation F18, 5°C/2M
# [8] = biological target: antigen of the Antigen binding ELISA (not named; BAN2401 is described as binding human Aβ protofibrils) (UniProt P05067); assay: antigen binding ELISA; formulation F17, initial
# CD32a [9] = biological target: CD32a (UniProt P12318); assay: CD32a binding assay; formulation F15, 5°C/2M
# CD32a [10] = biological target: CD32a (UniProt P12318); assay: CD32a binding assay; formulation F15, 25°C dark/7 D
# [11] = biological target: antigen of the Antigen binding ELISA (not named; BAN2401 is described as binding human Aβ protofibrils) (UniProt P05067); assay: antigen binding ELISA; formulation F0, 25°C/1M
# [12] = biological target: antigen of the Antigen binding ELISA (not named; BAN2401 is described as binding human Aβ protofibrils) (UniProt P05067); assay: antigen binding ELISA; formulation F13, 25°C/1M
# [13] = biological target: antigen of the Antigen binding ELISA (not named; BAN2401 is described as binding human Aβ protofibrils) (UniProt P05067); assay: antigen binding ELISA; formulation F15, 25°C 1000 lx/7 D
# [14] = biological target: antigen of the Antigen binding ELISA (not named; BAN2401 is described as binding human Aβ protofibrils) (UniProt P05067); assay: antigen binding ELISA; formulation F15, 5°C/2M
# [15] = biological target: antigen of the Antigen binding ELISA (not named; BAN2401 is described as binding human Aβ protofibrils) (UniProt P05067); assay: antigen binding ELISA; formulation F0, 5°C/2M
# CD32a [16] = biological target: CD32a (UniProt P12318); assay: CD32a binding assay; formulation F15, 25°C/2M
# CD32a [17] = biological target: CD32a (UniProt P12318); assay: CD32a binding assay; formulation F18, 25°C/1M
# CD32a [18] = biological target: CD32a (UniProt P12318); assay: CD32a binding assay; formulation F17, 5°C/2M
# CD32a [19] = biological target: CD32a (UniProt P12318); assay: CD32a binding assay; formulation F15, 25°C 1000 lx/7 D
# CD32a [20] = biological target: CD32a (UniProt P12318); assay: CD32a binding assay; formulation F15, initial
# CD32a [21] = biological target: CD32a (UniProt P12318); assay: CD32a binding assay; formulation F18, freeze-thaw 3 cycles
# [22] = biological target: antigen of the Antigen binding ELISA (not named; BAN2401 is described as binding human Aβ protofibrils) (UniProt P05067); assay: antigen binding ELISA; formulation F18, 25°C dark/7 D
# CD32a [23] = biological target: CD32a (UniProt P12318); assay: CD32a binding assay; formulation F17, 25°C/1M
# CD32a [24] = biological target: CD32a (UniProt P12318); assay: CD32a binding assay; formulation F13, 25°C/2M
# CD32a [25] = biological target: CD32a (UniProt P12318); assay: CD32a binding assay; formulation F18, 25°C 1000 lx/7 D
# [26] = biological target: antigen of the Antigen binding ELISA (not named; BAN2401 is described as binding human Aβ protofibrils) (UniProt P05067); assay: antigen binding ELISA; formulation F15, freeze-thaw 3 cycles
# [27] = biological target: antigen of the Antigen binding ELISA (not named; BAN2401 is described as binding human Aβ protofibrils) (UniProt P05067); assay: antigen binding ELISA; formulation F17, 5°C/2M
# [28] = biological target: antigen of the Antigen binding ELISA (not named; BAN2401 is described as binding human Aβ protofibrils) (UniProt P05067); assay: antigen binding ELISA; formulation F15, 25°C/2M
# [29] = biological target: antigen of the Antigen binding ELISA (not named; BAN2401 is described as binding human Aβ protofibrils) (UniProt P05067); assay: antigen binding ELISA; formulation F17, 25°C/2M
# CD32a [30] = biological target: CD32a (UniProt P12318); assay: CD32a binding assay; formulation F15, 25°C/1M
# [31] = biological target: antigen of the Antigen binding ELISA (not named; BAN2401 is described as binding human Aβ protofibrils) (UniProt P05067); assay: antigen binding ELISA; formulation F13, initial
# [32] = biological target: antigen of the Antigen binding ELISA (not named; BAN2401 is described as binding human Aβ protofibrils) (UniProt P05067); assay: antigen binding ELISA; formulation F18, 25°C/2M
# [33] = biological target: antigen of the Antigen binding ELISA (not named; BAN2401 is described as binding human Aβ protofibrils) (UniProt P05067); assay: antigen binding ELISA; formulation F13, 5°C/2M
# CD32a [34] = biological target: CD32a (UniProt P12318); assay: CD32a binding assay; formulation F0, 5°C/2M
# CD32a [35] = biological target: CD32a (UniProt P12318); assay: CD32a binding assay; formulation F13, initial
# [36] = biological target: antigen of the Antigen binding ELISA (not named; BAN2401 is described as binding human Aβ protofibrils) (UniProt P05067); assay: antigen binding ELISA; formulation F15, initial
# CD32a [37] = biological target: CD32a (UniProt P12318); assay: CD32a binding assay; formulation F0, initial
# CD32a [38] = biological target: CD32a (UniProt P12318); assay: CD32a binding assay; formulation F18, 25°C/2M
# [39] = biological target: antigen of the Antigen binding ELISA (not named; BAN2401 is described as binding human Aβ protofibrils) (UniProt P05067); assay: antigen binding ELISA; formulation F18, initial
# CD32a [40] = biological target: CD32a (UniProt P12318); assay: CD32a binding assay; formulation F18, initial; remark: listed apart in the source
# [41] = biological target: antigen of the Antigen binding ELISA (not named; BAN2401 is described as binding human Aβ protofibrils) (UniProt P05067); assay: antigen binding ELISA; formulation F0, 25°C/2M
# CD32a [42] = biological target: CD32a (UniProt P12318); assay: CD32a binding assay; formulation F13, 25°C/1M
# [43] = biological target: antigen of the Antigen binding ELISA (not named; BAN2401 is described as binding human Aβ protofibrils) (UniProt P05067); assay: antigen binding ELISA; formulation F18, freeze-thaw 3 cycles
# [44] = biological target: antigen of the Antigen binding ELISA (not named; BAN2401 is described as binding human Aβ protofibrils) (UniProt P05067); assay: antigen binding ELISA; formulation F18, 5°C/2M
# CD32a [45] = biological target: CD32a (UniProt P12318); assay: CD32a binding assay; formulation F17, 25°C/2M
# [46] = biological target: antigen of the Antigen binding ELISA (not named; BAN2401 is described as binding human Aβ protofibrils) (UniProt P05067); assay: antigen binding ELISA; formulation F15, 25°C/1M
# [47] = biological target: antigen of the Antigen binding ELISA (not named; BAN2401 is described as binding human Aβ protofibrils) (UniProt P05067); assay: antigen binding ELISA; formulation F15, 25°C dark/7 D
# CD32a [48] = biological target: CD32a (UniProt P12318); assay: CD32a binding assay; formulation F13, 5°C/2M
# CD32a [49] = biological target: CD32a (UniProt P12318); assay: CD32a binding assay; formulation F0, 25°C/1M
# CD32a [50] = biological target: CD32a (UniProt P12318); assay: CD32a binding assay; formulation F0, 25°C/1M; remark: listed apart in the source
# CD32a [51] = biological target: CD32a (UniProt P12318); assay: CD32a binding assay; formulation F18, 25°C dark/7 D
# [52] = biological target: antigen of the Antigen binding ELISA (not named; BAN2401 is described as binding human Aβ protofibrils) (UniProt P05067); assay: antigen binding ELISA; formulation F18, 25°C 1000 lx/7 D
# [53] = biological target: antigen of the Antigen binding ELISA (not named; BAN2401 is described as binding human Aβ protofibrils) (UniProt P05067); assay: antigen binding ELISA; formulation F18, 25°C/1M
# [54] = biological target: antigen of the Antigen binding ELISA (not named; BAN2401 is described as binding human Aβ protofibrils) (UniProt P05067); assay: antigen binding ELISA; formulation F0, initial
# CD32a, sequence (P12318 36-218): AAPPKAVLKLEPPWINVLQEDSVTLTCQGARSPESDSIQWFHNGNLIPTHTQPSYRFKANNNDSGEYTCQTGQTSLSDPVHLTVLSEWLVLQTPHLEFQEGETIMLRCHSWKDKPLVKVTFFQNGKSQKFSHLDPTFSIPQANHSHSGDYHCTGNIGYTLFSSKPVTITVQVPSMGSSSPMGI
substance,measurement,setting,value
BAN2401 (antibody),ELISA (Antigen binding ELISA),[1],107%
same,FcR (Binding assay (CD32a)),CD32a [2],92.4%
same,FcR (Binding assay (CD32a)),CD32a [3],93.5%
same,ELISA (Antigen binding ELISA),[4],107%
same,FcR (Binding assay (CD32a)),CD32a [5],108%
same,FcR (Binding assay (CD32a)),CD32a [6],117%
same,FcR (Binding assay (CD32a)),CD32a [7],94.7%
same,ELISA (Antigen binding ELISA),[8],107%
same,FcR (Binding assay (CD32a)),CD32a [9],99%
same,FcR (Binding assay (CD32a)),CD32a [10],104%
same,ELISA (Antigen binding ELISA),[11],103%
same,ELISA (Antigen binding ELISA),[12],104%
same,ELISA (Antigen binding ELISA),[13],101%
same,ELISA (Antigen binding ELISA),[14],123%
same,ELISA (Antigen binding ELISA),[15],103%
same,FcR (Binding assay (CD32a)),CD32a [16],102%
same,FcR (Binding assay (CD32a)),CD32a [17],91.9%
same,FcR (Binding assay (CD32a)),CD32a [18],103%
same,FcR (Binding assay (CD32a)),CD32a [19],118%
same,FcR (Binding assay (CD32a)),CD32a [20],109%
same,FcR (Binding assay (CD32a)),CD32a [21],106%
same,ELISA (Antigen binding ELISA),[22],105%
same,FcR (Binding assay (CD32a)),CD32a [23],104%
same,FcR (Binding assay (CD32a)),CD32a [24],102%
same,FcR (Binding assay (CD32a)),CD32a [25],109%
same,ELISA (Antigen binding ELISA),[26],108%
same,ELISA (Antigen binding ELISA),[27],126%
same,ELISA (Antigen binding ELISA),[28],96.9%
same,ELISA (Antigen binding ELISA),[29],102%
same,FcR (Binding assay (CD32a)),CD32a [30],98.3%
same,ELISA (Antigen binding ELISA),[31],109%
same,ELISA (Antigen binding ELISA),[32],97.8%
same,ELISA (Antigen binding ELISA),[33],104%
same,FcR (Binding assay (CD32a)),CD32a [34],93.8%
same,FcR (Binding assay (CD32a)),CD32a [35],101%
same,ELISA (Antigen binding ELISA),[36],102%
same,FcR (Binding assay (CD32a)),CD32a [37],91.7%
same,FcR (Binding assay (CD32a)),CD32a [38],92.9%
same,ELISA (Antigen binding ELISA),[39],108%
same,FcR (Binding assay (CD32a)),CD32a [40],106%
same,ELISA (Antigen binding ELISA),[41],91.8%
same,FcR (Binding assay (CD32a)),CD32a [42],99.4%
same,ELISA (Antigen binding ELISA),[43],104%
same,ELISA (Antigen binding ELISA),[44],118%
same,FcR (Binding assay (CD32a)),CD32a [45],105%
same,ELISA (Antigen binding ELISA),[46],104%
same,ELISA (Antigen binding ELISA),[47],107%
same,FcR (Binding assay (CD32a)),CD32a [48],100%
same,FcR (Binding assay (CD32a)),CD32a [49],95.5%
same,FcR (Binding assay (CD32a)),CD32a [50],95.3%
same,FcR (Binding assay (CD32a)),CD32a [51],105%
same,ELISA (Antigen binding ELISA),[52],109%
same,ELISA (Antigen binding ELISA),[53],97%
same,ELISA (Antigen binding ELISA),[54],101%
